Assay results reported in patent US8536118B2, “Methods and compositions for modulating hyperstabilized c-met” (Genentech, Inc., priority 2005, dated 2013).

Assays:
Met receptor = Met receptor (Homo sapiens, UniProt P08581, DEL964-1010); assay: Met receptor inhibition in serum-starved, rhuHGF-stimulated cells, immunoblot with infrared quantification; assay type: cell-based; conditions: H596 cells (Met exon 14 deletion), antibody 30 minutes, then 100 ng/ml rhuHGF; FIGS. 4A, 6
Description: (§1) To examine the prolonged signaling in H226, H596, H358, or Rat 1A-Met stable clones, the cells were rinsed with PBS then serum-starved in RPMI or DMEM media containing 0.5% BSA, 2 mM glutamine, and penicillin/streptomycin for one hour. rhuHGF or the agonistic anti-Met monoclonal antibody, 3D6 (Genentech), was added to the serum-free media for 10 minutes. The monolayer of cells was then rinsed with PBS and incubated with serum-free media until their extraction at the indicated times. Cells were then rinsed once with PBS, lysed with 1×SDS sample buffer containing 1×DTT (Invitrogen), sonicated briefly, and boiled for 5 minutes. […] Boiled samples were analyzed by SDS-PAGE and immunoblotted with P-Met (Y1230/Y1234/Y1235, BioSource), P-Met (Y1234/Y1235), Met (DL-21), P-MAPK (E10, Cell Signaling), P-MAPK (Cell Signaling), P-Akt (587F11, Cell Signaling), or Akt (Cell Signaling). […] Proteins transferred onto nitrocellulose membranes were detected by infrared scan using Odyssey (LiCor) according to the manufacturer's recommended western blotting instructions followed by quantification. […] After 72 hrs, cell viability was measured using the Celltiter-Glo Luminescent Cell Viability Assay (Promega). Stimulation indices were determined by dividing the average cell viability units of HGF-stimulated cultures by the average cell viability units of unstimulated cultures. […]

H596 cells = assay: Growth inhibition assay (Celltiter-Glo cell viability, 72 hrs, HGF stimulation); assay type: cell-based, human; conditions: with or without 50 ng/ml rhuHGF, FIG. 4B
Description: as §1

B1: OA-5D5: known anti-c-met inhibitor; antibody of intact light chain, heavy chain and N-terminally truncated heavy chain comprising an Fc portion (antibody, V domains shown)
VH: EVQLVESGGGLVQPGGSLRLSCAASGYTFTSYWLHWVRQAPGKGLEWVGMIDPSNSDTRFNPNFKDRFTISADTSKNTAYLQMNSLRAEDTAVYYCATYRSYVTPLDYWGQGTLVTVSS
VL: DIQMTQSPSSLSASVGDRVTITCKSSQSLLYTSSQKNYLAWYQQKPGKAPKLLIYWASTRESGVPSRFSGSGSGTDFTLTISSLQPEDFATYYCQQYYAYPWTFGQGTKVEIK
modifications: constant regions; truncated heavy chain Fc; Sequence is synthesized
notes: antibody of intact light chain, heavy chain and N-terminally truncated heavy chain comprising an Fc portion
- MAPK phosphorylation (Met receptor): decreased with the addition of anti-Met OA-5D5 in a dose-dependent manner
- Met phosphorylation (Met receptor): decreased with the addition of anti-Met OA-5D5 in a dose-dependent manner
- cell proliferation (cell viability) (H596 cells): dose-dependent inhibition of cell proliferation in a ligand-dependent manner
